Source: paper PMC2864353 (Blood coagulation & fibrinolysis : an international journal …, 2010)
Where two headings read alike, the source gives them in different places.

Tests used:
Test in all cases: SPR
[1] = target: soluble tissue factor (TF 1-219) (UniProt P13726 33-251)
[2] = target: T1, recombinant tissue factor containing transmembrane spanning domain (TF 1-248), relipidated
T1 chain: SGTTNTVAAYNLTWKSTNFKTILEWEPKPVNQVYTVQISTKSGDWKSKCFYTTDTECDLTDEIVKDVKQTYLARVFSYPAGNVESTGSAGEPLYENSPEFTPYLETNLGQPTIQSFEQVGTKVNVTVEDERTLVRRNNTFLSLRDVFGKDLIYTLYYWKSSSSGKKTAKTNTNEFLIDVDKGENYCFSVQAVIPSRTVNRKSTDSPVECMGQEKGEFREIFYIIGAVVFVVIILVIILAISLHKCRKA

[3] = target: T1, recombinant tissue factor containing …

B1: Factor VIIa (enzyme)
chain 1: ANAFLEELRPGSLERECKEEQCSFEEAREIFKDAERTKLFWISYSDGDQCASSPCQNGGSCKDQLQSYICFCLPAFEGRNCETHKDDQLICVNENGGCEQYCSDHTGTKRSCRCHEGYSLLADGVSCTPTVEYPCGKIPILEKRNASKPQGR
chain 2: IVGGKVCPKGECPWQVLLLVNGAQLCGGTLINTIWVVSAAHCFDKIKNWRNLIAVLGEHDLSEHDGDEQSRRVAQVIIPSTYVPGTTNHDIALLRLHQPVVLTDHVVPLCLPERTFSERTLAFVRFSLVSGWGQLLDRGATALELMVLNVPRLMTQDCLQQSRKVGDSPNITEYMFCAGYSDGSKDSCKGDSGGPHATHYRGTWYLTGIVSWGQGCATVGHFGVYTRVSQYIEWLQKLMRSEPRPGVLLRAPFP
Kd [1]: 11600 pM
koff [1]: 0.00592 s⁻¹
kon [1]: 475000 M⁻¹ s⁻¹
Kd [2]: 47.4 pM
koff [2]: 0.000233 s⁻¹
kon [2]: 2.58e+06 M⁻¹ s⁻¹
Kd [3]: 45.7 pM
koff [3]: 0.000234 s⁻¹
kon [3]: 2.73e+06 M⁻¹ s⁻¹
